Results as given in the nanobody polyreactivity screen of Harvey et al. (2022).

Assay: yeast display, Sf9 membrane polyspecificity reagent, FACS + sequencing; frameworks hold sequencing errors
In short: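 Using colony PCR, genes from sorted yeast display clones were amplified, then sequenced on MiSeq at 2 × 250 and filtered by CDR length. The clones had been stained with 10% biotinylated, detergent-solubilized Sf9 membrane reagent for 1 hour at 4 °C and sorted by FACS into low and high (top ~1%) gates on anti-HA and streptavidin fluorescence. Polyreactivity labels come from the gate of origin.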

Sequence | polyreactivity (PSR sort gate)
QVQLVESGGGLVQAGGSLRLSCAASGLILVHYAMGWYRQAPGKERELVAAISAGGGSTYYADSVKGRFTISRDNAKNTVYLQMTSLKPEDTAVYYCNARVVNYFRPRTGAREYDYWGQGTQVTVSS | high polyreactivity
QVQLVESGGGLVQAGGSLRLSCAASGLIFYDNMGWYRQAPGKERELVAAISSSGGSRTYAYSVKGRFTISRDNAKNTVYFQMNSLKPEDTEVYYCALDKHYYGRYGVTYDYDYWGQGTQVTVSS | low polyreactivity
QVQLVESGGGLVQAGGSLRLSCAASGGTSIYNDMGWYRQAPGKERELVAAISWSGGSTYYADSVKGRFTISRDNAKNTVYLQMNSLKPEDTAVYYCATQGFYKDYSRYDYWGQVTQVTVSS | low polyreactivity
QVQLVESGGGLVQAGGSLRLSCAASGSIFLQNAMGWYRQAPGKERELVAAITNGGSTNYADSVKGRFTISRDNAKNTVYLQMNSLKPEDTAVYYCAAYPLYTGSYDRGGYWGQGTQVTVSS | low polyreactivity
QVQLVESVGGLVQAGGSLRLSCAASGSIFLQNAMGGYRQAPGKERELVAAITNGGSTNYADSVKGRFTISRDNAKNTVYLQMNSLKPEDTAVYYCAAYPLYTGSYDRGGYWGQGTLVTVSS | low polyreactivity
QVQLVESGGGLVQAGGSLRLSCAASGSTFVWNAMGWYRQAPGKERELVAAITNDGRTNYADSVKGRFTISRDNAKNTVYLQMNSLKPEDTAVYYCNADGFNSYWWNYYWGQGTQVTVSS | low polyreactivity
QVQLVESGGGLVQAGGSLRLSCAASGSIIKPYAMGWYRQAPGKERELVAAIRSSGGRTNYADSVKGRFTISRDNAKNTVYLQMNSLKPEDTAVYYCAKRYYGRKYYYWGQGTHVTVSS | high polyreactivity
QVQLVESGGGLVQAGGSLRLSCAASGSTFASYAMGWYRQAPGKEREFVAAISRSGGSTYYADSVKGRFTISRDNAKNTVYLQMNSLKPEDTAVYYCAARSPSADEYYYWGQGTQVTVSS | low polyreactivity
QVQHVESGGGLVQAGGSLRLSCAASGRTFGQNAMGWYRQAPGKERELVASIRSGGITDYADSVKGRFTISRDNAKNTVYLHMNSLKPEDTAVYYCNAEGVWWSTRYDSWGQGTQVTVSA | low polyreactivity
QVQLVESGGGLVQAGGSLRLSCAASGRTFYRNAMGWSRPAPGKERELVAAISSDDSTNYADSVKGRFTISRDNAKNTVYLQMNSLKPEDTAVYYCNADYYYGYEYDYWGQGTQVTVSS | low polyreactivity
QVQLVESGGGLVQAGGSLRLSCAASGIFRYYAMGWYRQAPGKERELVASITGGGSTYYADSVKGRFTISRDNAKMTVYLQLNSLKPEDTAVYYCNTAGAYYRWTPYYYWGQGTQVTVSS | high polyreactivity
QVQLVESGGGLVQAGGSLRLICAASGLTFVHNAMGWYRQAPGKERELVAAISSSGGRTYYADSVKARFTISRDNAKNTVYLQMNSLKPEDTAVYYCNKAAFNYYLYGYWGQGTQVTVSS | high polyreactivity
QVQLVESGVGLVQAVGSLRLSSPTSGIIFRYYSMVWYRHAPGKESEYVAVITRRGGGTYYAYSVKGRFTISRDNAKNTVYFEMNSLKPEDTAVYYCAKDFTGHYPKGFDYWGQGTQVTVSS | low polyreactivity
QVQLVESGGGLVQAGGSLRLSCAASGRIFADYAMGWYRQAPGKETELVAAISSTSSTNYADSVKGRFTISRDNAKNTVYLQMNSLKPEDTAVYYCAKRIGHLPFRPYDYWGQGTQVTVSS | low polyreactivity
QVQLVESGGGLVQAGGSLRLSCAASGLTCTRNAMGWYRQAPGKEREFVAAIRWSAGSTYYADSVKGRFTISRDNAKNTVYLQMNSLTPEDTAVSYCNAALNVSGHYPNDYWGQGTQVTVSS | low polyreactivity
QVQLEESGGGLVQAGGSLSVSCAASGSICRNYAMGWYLQAPGKERELVAAISVRGGSTYYADSVKGRFTISRDNAKNTVYLQMHSLKPEDTAGYYCNAVHHDTISDYWGQGTQVTVSS | high polyreactivity

Sequence | polyreactivity (PSR sort gate)
QVQLVESGGGLVQAGGSLRLSCAASGRIFGSNPMGWYRQAPGKERELVAAISSGGSTSYADSVKGRFTISRDNAKKTVYLQMNSLKPEDTAVYYCAADRFAFYGRYRGPYYYWGQGTQVTVSS | high polyreactivity
QVQLVESGGGLVQAGGSLRLSCAASGRIFVYNAMGWYRQAPGKEREFVAAISWDGASTYYADSVKGRFTISRDNAKNTVYLQMNSLKPEDTAVYYCAASYRRKLYNDYWGQGTQVTVSS | low polyreactivity
QVQLVESGGGLVQAGGSLRLSCAASGRIFRYYAMGWYRQAPGKERELVATITASSGSTYYADSVKGRFTISRDNAKNTVYLQMNSLKPEDTAVYYCAAGFVYRPGSFIRFDYWGQGTQVTVSS | high polyreactivity
QVQLQESGGGLVQAGGSLCLSCAASGTIFFDGDMGWYRQAPGKEREFVAAINPGGSAYYADSVKGRLPLAAITHTVYLQMISLKPEDTAVYYCAAKLFDVYGYYYWGQGTHVTVSS | low polyreactivity
QVQLVESGGGLVQAGGSLRLSCAASGRTFLPNAMGWYRQAPGKERELVAVITSGGSTNYADSVKGRFTISRDNAKNTVYLQMNSLKPEDTAVYYCAARRWSSSQGHWGKSAGYGYLGQGTQVTVSS | low polyreactivity
QVQLVESGGGLVQAGGSLRLSCAASGRILASYAMGWYRQAPGKERELVAAISRSGGSTYYADSVKGRFTISRDNAKNTVYLQMNSLKPEDTAVYYCAAKYPQKTPVNSYGNSFYYWGQGTQVTVSS | high polyreactivity
QVQLVESGGGLVQAGGSLRLSCAASGLIFPSYAMGWYRQAPGKERELVATINRGSRTNYADSVKGRFTISRDNAKNTVYLQMNSLKPEDTAVYYCAAHYTTFIPSPDGDYLGQGTQVTVSS | low polyreactivity
QVQLVESGGGLVQAGGSLRLRCAASGRIFGFYAMGWYRQAPGKERELVAAITSSAGRTRYADSVKGRFTISRDNAKNTVYLQMNSLKPEDTAVYYCAARTVGRKAGFDYWGQGTQVTVSS | high polyreactivity
QLQLVESGGGLVKAGGSLRLSCADSGLIFRNNCMGGYRHAPRKERELVAAISNRGGSTYYADSVKGRFTISRDNAKNTVYLQMNSLKPEDTAVYDCNAVASYSQGGYRYDYWGQGTQVTVSS | high polyreactivity
QVQLVESGGGLVQAGGSLRLSCAASGFIFTSYAMGWYRQAPGKERELVAAITDGGSTNYADSVKGRFTISRDNAKNTVYLQMNSLKPEDTAVFYCAADGFKTVLPEYDYWGQGTQVTVSS | low polyreactivity
QVQLVESGGGLVQAGGSLRLSCAASGFILYGNTMGWYRQAPGKERELVAAISWSGGNTRYADSVKARFTISRDNAKNTVYLQMNSLQPEDTAVYYCAAYSNYVWSIRRDYWGQGTQVTVSS | low polyreactivity
QVQLVESGGGLVQAGGSLRLSCAASGSTFTPYAMGWYRQAPGKDREFVAVITRSGTRTYYADSVKGRFTISRDNAKNTVYLQMNSLKPEDTAVSYCAADRHPYNRYDYYYWGQGTQVTVSS | high polyreactivity
QVQLVESGGGLVQPRGSLRLSCAASGGTFKFYAMGWYRQAPGKDRELVAAITSGGSTNYADSVKGRFTISRDNAKNTVYLLMNSLKPEDTALYYCNADFYQRYGVFSSRRYFYWGQGTQVTVSS | low polyreactivity
QVQLVESGGGLVQAGGSLRLSCAASGRTFDYYAMGWYRQAPGKERELVARISWNGGSTRYADSVKGRFTISRDNAKNTVYLQMNSLKPEDTAVYYCAARYILLARKYDYWGQGTQVTVSS | high polyreactivity
QVQLVESGGGLVQAGGSLRLSCAASGSTFSRYAMGWYRQAPGKVRELVAAISWGGNTYYADSVKGRFTISRDNAKNTVYLQMNSLKPEDTAVYYCNRYSKLYNTMDYWGQGTQVTVSS | high polyreactivity
